Laboratory results: article PMC4057743, “Arabidopsis ABA Receptor RCAR1/PYL9 Interacts with an R2R3-Type MYB Transcription Factor, AtMYB44” (International Journal of Molecular Sciences, 2014)

Target: T1, His-ABI1 (Arabidopsis, UniProt P49597 1-434)
T1 construct: ABI1, type 2C protein phosphatase (PP2C), Arabidopsis; ORF subcloned into pET28a via BamH I and Hind III sites; source: Escherichia coli, purified
T1 sequence (looked up): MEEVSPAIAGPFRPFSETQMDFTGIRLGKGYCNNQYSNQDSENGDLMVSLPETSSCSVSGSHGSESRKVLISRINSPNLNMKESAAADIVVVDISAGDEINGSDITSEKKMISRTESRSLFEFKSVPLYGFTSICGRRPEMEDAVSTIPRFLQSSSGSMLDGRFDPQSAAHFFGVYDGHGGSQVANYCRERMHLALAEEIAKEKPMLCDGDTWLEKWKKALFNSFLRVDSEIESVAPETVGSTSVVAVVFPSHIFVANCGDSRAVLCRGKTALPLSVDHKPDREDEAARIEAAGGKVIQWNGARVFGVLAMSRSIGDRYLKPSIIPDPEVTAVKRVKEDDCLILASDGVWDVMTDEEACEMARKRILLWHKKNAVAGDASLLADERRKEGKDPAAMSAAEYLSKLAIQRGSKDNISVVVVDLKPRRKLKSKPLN
Assay: pull-down; competitive: 5 μg His-RCAR1/PYL9 with 0, 5 or 25 μg His-ABI1 or 25 μg His protein on immobilized GST-AtMYB44 (5 μg); 50 mM Tris-HCl pH 7.5, 100 mM NaCl, 1 mM EDTA, 0.05% β-mercaptoethanol, 0.2% Triton X-100, 10 mM MgCl2; 4 °C, 2 h; 10 μM ABA when indicated; anti-His blot
Settings: both partners purified

B1: His-RCAR1/PYL9 (receptor, Arabidopsis, UniProt Q84MC7 1-187, looked up)
chain: MMDGVEGGTAMYGGLETVQYVRTHHQHLCRENQCTSALVKHIKAPLHLVWSLVRRFDQPQKYKPFVSRCTVIGDPEIGSLREVNVKSGLPATTSTERLELLDDEEHILGIKIIGGDHRLKNYSSILTVHPEIIEGRAGTMVIESFVVDVPQGNTKDETCYFVEALIRCNLKSLADVSERLASQDITQ
notes: ABA receptor RCAR1/PYL9, Arabidopsis; ORF subcloned into pET28a via EcoR I and Xho I sites; source: Escherichia coli, purified
  binding result: binds
